Measured values taken from PMC6657065.
Blank lines part the entries; values can stand above or below the substance they belong to.

Experiments:
Experiment in all cases: SEC; Superdex-200 on FPLC after TEV removal of the MBP tag; 20 mM NaH2PO4 pH 7.0, 0.3 M NaCl, 1 mM TCEP, 10% glycerol, 0.005% FC-16; 4 °C; mass by regression against gel filtration standards (Bio-Rad); self-association, oligomer size
[1] = target: Bambusa oldhamii cellulose synthase BoCesA1 (Bambusa oldhamii)
[2] = target: Bambusa oldhamii cellulose synthase BoCesA2 (Bambusa oldhamii)
[3] = target: Bambusa oldhamii cellulose synthase BoCesA3 (Bambusa oldhamii)
[4] = target: Bambusa oldhamii cellulose synthase BoCesA4 (Bambusa oldhamii)
[5] = target: Bambusa oldhamii cellulose synthase BoCesA5 (Bambusa oldhamii)
[6] = target: Bambusa oldhamii cellulose synthase BoCesA7 (Bambusa oldhamii)

stoichiometry N [1]: 6
Substance: Bambusa oldhamii cellulose synthase BoCesA1 (enzyme)

stoichiometry N [2]: 6
Substance: Bambusa oldhamii cellulose synthase BoCesA2 (enzyme)

stoichiometry N [3]: 6
Substance: Bambusa oldhamii cellulose synthase BoCesA3 (enzyme)

stoichiometry N [4]: 6
Substance: Bambusa oldhamii cellulose synthase BoCesA4 (enzyme)

stoichiometry N [5]: 6
Substance: Bambusa oldhamii cellulose synthase BoCesA5 (enzyme)

stoichiometry N [6]: 6
Substance: Bambusa oldhamii cellulose synthase BoCesA7 (enzyme)
